Reference: patent US20060246077 (published 2006)

Target: MUC18-V5-His (extracellular domain) (human, UniProt P43121)
Assay: SPR, average

Sequence of MUC18-V5-His (extracellular domain) (P43121 1-559): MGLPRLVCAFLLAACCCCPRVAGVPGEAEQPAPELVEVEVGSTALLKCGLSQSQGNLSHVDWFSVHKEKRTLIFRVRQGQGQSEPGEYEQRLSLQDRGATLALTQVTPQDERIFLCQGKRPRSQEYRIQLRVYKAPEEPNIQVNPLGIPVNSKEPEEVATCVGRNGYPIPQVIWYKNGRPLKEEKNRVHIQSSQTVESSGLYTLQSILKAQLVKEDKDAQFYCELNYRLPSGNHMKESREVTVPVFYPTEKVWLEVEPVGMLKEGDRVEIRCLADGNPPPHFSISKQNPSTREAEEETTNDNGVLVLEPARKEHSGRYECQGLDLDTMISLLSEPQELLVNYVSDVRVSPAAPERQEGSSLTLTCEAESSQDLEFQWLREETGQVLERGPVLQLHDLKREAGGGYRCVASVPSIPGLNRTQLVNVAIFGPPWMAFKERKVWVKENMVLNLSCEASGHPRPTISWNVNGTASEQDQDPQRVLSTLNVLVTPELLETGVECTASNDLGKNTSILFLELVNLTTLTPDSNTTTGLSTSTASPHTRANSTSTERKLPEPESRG

B1: c3.19.1 (antibody, V domains shown)
VH: QVQLQESGPGLVKPSETLSLTCTVSGGSISSYYWSWIRQPPGKGLEWIGYIYYTWTSNYNPSLKSRVTISVDTSKNQFSLRLSSVTAADTAVYYCARDQGQWLLPDAFDIWGQGTMVTVSS
VL: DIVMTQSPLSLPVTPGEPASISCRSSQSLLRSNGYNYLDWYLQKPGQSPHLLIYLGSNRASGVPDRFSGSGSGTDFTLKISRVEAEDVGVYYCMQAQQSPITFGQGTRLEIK
Kd: 0.61 nM
